Measurements as given in the supplement of paper PMC12338614.

B1: library; numbered along this chain (parent)
chain: MEVVDPQQLGMFTEGELMSVGMDTFIHRIDSTEVIYQPRRKRAKLIGKYLMGDLLGEGSYGKVKEVLDSETLCRRAVKILKKKKLRRIPNGEANVKKEIQLLRRLRHKNVIQLVDVLYNEEKQKMYMVMEYCVCGMQEMLDSVPEKRFPVCQAHGYFCQLIDGLEYLHSQGIVHKDIKPGNLLLTTGGTLKISDLGVAEALHPFAADDTCRTSQGSPAFQPPEIANGLDTFSGFKVDIWSAGVTLYNITTGLYPFEGDNIYKLFENIGKGSYAIPGDCGPPLSDLLKGMLEYEPAKRFSIRQIRQHSWFRKKHPPAEAPVPIPPSPDTKDRWRSMTVVPYLEDLHGADEDEDLFDIEDDIIYTQDFTVPGQVPEEEASHNGQRRGLPKAVCMNGTEAAQLSTKSRAEGRAPNPARKACSASSKIRRLSACKQQ

Variants of: B1
Experiment: STK11 functional score (HeLa growth suppression), rescaled enrichment; synonymous median = 1, nonsense median = 0 (normalised score)
Conditions: with HeLa; variant type: missense
Procedure: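 Deep mutational scan (TileSeq/POPCode codon randomisation) of full-length codon-optimised STK11 cDNA integrated at a Bxb1 landing pad (AAVS1) in HeLa cells. Restoring functional STK11 suppresses HeLa proliferation. Variant frequencies were measured by NGS before and after about two weeks of growth. The error-corrected enrichment log-ratio was rescaled so that synonymous median = 1 and nonsense median = 0, scores above 1 were compressed, and codon-level and three biological replicate scores were combined; error is the bootstrapped standard error. Scale: synonymous median = 1, nonsense median = 0; below 0.5 = damaging.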

STK11 functional score, by site and new letter:
V63: M 0.802 | E 0.189 | R -0.0566 | N 1.14 | S 1.27 | W 0.213 | L 0.458 | C 1.4
K48: R 1.42 | V 1.24 | A 0.852 | W 0.798 | Q 1.41 | D 1.34 | N 0.966 | P 1.41 | T 1.59 | I 1.34 | Y 1.4 | L 1.3 | S 1.37
S59: G 1.65 | A 1.19 | H 1.09 | V 1.55 | C 0.952 | T 1.32 | W 0.719 | I 1.31 | R 1.5 | D 0.937 | Q 1.63 | F 0.672 | E 1.42 | N 1.45 | L 1.56
R42: K 1.26 | S 1.08 | T 0.779 | W 1.68
A43: V 0.673 | L 1.58 | F 1.23 | Y 1.67 | T 1.43 | M 1.57 | P 1.37 | I 1.18 | R 1.64 | W 1.06 | G 0.859 | Q -0.492 | S 1.34
L55: V 0.737 | R 1.21 | C 1.43 | A 0.122 | S 0.693 | P 1.23 | M 0.938 | W 0.491 | F -0.181 | I 1.39 | G 1.53 | Q 1.59 | H 1.43 | D 1.31
K41: A 1.25 | F 1.14 | W 1.49 | T 1.27 | H 1.44 | S 1.46 | I 0.844 | Q 0.893 | P 1.58 | V 1.36 | D 1.39 | E 1.42 | L 1.27 | R 1.6 | G 1.25 | C 1.47
